According to publication PMC12096693 (Microbial Cell Factories, 2025):

B1: LdcC (Escherichia coli K-12) (protein)
chain: MNIIAIMGPHGVFYKDEPIKELESALVAQGFQIIWPQNSVDLLKFIEHNPRICGVIFDWDEYSLDLCSDINQLNEYLPLYAFINTHSTMDVSVQDMRMALWFFEYALGQAEDIAIRMRQYTDEYLDNITPPFTKALFTYVKERKYTFCTPGHMGGTAYQKSPVGCLFYDFFGGNTLKADVSISVTELGSLLDHTGPHLEAEEYIARTFGAEQSYIVTNGTSTSNKIVGMYAAPSGSTLLIDRNCHKSLAHLLMMNDVVPVWLKPTRNALGILGGIPRREFTRDSIEEKVAATTQAQWPVHAVITNSTYDGLLYNTDWIKQTLDVPSIHFDSAWVPYTHFHPIYQGKSGMSGERVAGKVIFETQSTHKMLAALSQASLIHIKGEYDEEAFNEAFMMHTTTSPSYPIVASVETAAAMLRGNPGKRLINRSVERALHFRKEVQRLREESDGWFFDIWQPPQVDEAECWPVAPGEQWHGFNDADADHMFLDPVKVTILTPGMDEQGNMSEEGIPAALVAKFLDERGIVVEKTGPYNLLFLFSIGIDKTKAMGLLRGLTEFKRSYDLNLRIKNMLPDLYAEDPDFYRNMRIQDLAQGIHKLIRKHDLPGLMLRAFDTLPEMIMTPHQAWQRQIKGEVETIALEQLVGRVSANMILPYPPGVPLLMPGEMLTKESRTVLDFLLMLCSVGQHYPGFETDIHGAKQDEDGVYRVRVLKMAG
B2: CadA (Escherichia coli K-12) (protein)
chain: MNVIAILNHMGVYFKEEPIRELHRALERLNFQIVYPNDRDDLLKLIENNARLCGVIFDWDKYNLELCEEISKMNENLPLYAFANTYSTLDVSLNDLRLQISFFEYALGAAEDIANKIKQTTDEYINTILPPLTKALFKYVREGKYTFCTPGHMGGTAFQKSPVGSLFYDFFGPNTMKSDISISVSELGSLLDHSGPHKEAEQYIARVFNADRSYMVTNGTSTANKIVGMYSAPAGSTILIDRNCHKSLTHLMMMSDVTPIYFRPTRNAYGILGGIPQSEFQHATIAKRVKETPNATWPVHAVITNSTYDGLLYNTDFIKKTLDVKSIHFDSAWVPYTNFSPIYEGKCGMSGGRVEGKVIYETQSTHKLLAAFSQASMIHVKGDVNEETFNEAYMMHTTTSPHYGIVASTETAAAMMKGNAGKRLINGSIERAIKFRKEIKRLRTESDGWFFDVWQPDHIDTTECWPLRSDSTWHGFKNIDNEHMYLDPIKVTLLTPGMEKDGTMSDFGIPASIVAKYLDEHGIVVEKTGPYNLLFLFSIGIDKTKALSLLRALTDFKRAFDLNLRVKNMLPSLYREDPEFYENMRIQELAQNIHKLIVHHNLPDLMYRAFEVLPTMVMTPYAAFQKELHGMTEEVYLDEMVGRINANMILPYPPGVPLVMPGEMITEESRPVLEFLQMLCEIGAHYPGFETDIHGAYRQADGRYTVKVLKEESKK

How the values were obtained:
CL2 = settings: pH 7, 2 mM PLP
purified protein = substrate: NCCCC[C@H](N)C(=O)O; experiment: purified protein; settings: pH 7, 2 mM PLP

Row | Molecule | Km (CL2) [mM] | Km (purified protein) [mM]
1 | NCCCC[C@H](N)C(=O)O [L-lysine] | 22.2 ± 5.73 | 
2 | B1 |  | 18.46 ± 0.89
3 | B2 |  | 29.23 ± 9.56
